Measured values reported in patent US20140274797.

Tested on: specific peptide sequence that is a substrate for MMP-9 (Lys-Gly-Pro-Arg-Ser-Leu-Ser-Gly-Lys)

## metalloproteinase-9 (MMP-9)
  cleavage of the donor/acceptor-labelled peptide (loss of FRET, colour change): Addition of MMP-9 cleaves the peptide separating donor and acceptor
